The record followed here is article PMC8473724.

Test [1] addresses GRB2 (UniProt P62993). Briefly: anti-Myc co-IP, anti-GRB2 immunoblot. The conditions noted are these: reference: CD22-Myc wild type; sites Y807. Background: In western blotting, separated proteins are transferred to a membrane and probed.
In test [2] the target is ANKLE2. Briefly: anti-FLAG co-immunoprecipitation, SILAC LC-MS. The settings on record: Ramos PTP1B KO cells; n = 3; read off a plot; scale: log10 SILAC ratio.
Test [3] deals with CDC20. As to the kind of experiment: anti-FLAG co-immunoprecipitation, SILAC LC-MS. The settings on record: Ramos PTP1B KO cells; n = 3; read off a plot; scale: log10 SILAC ratio.
Test [4] deals with ARHGAP12 iso 2. Briefly: anti-FLAG co-immunoprecipitation, SILAC LC-MS. The settings on record: Ramos PTP1B KO cells; n = 3; read off a plot; scale: log10 SILAC ratio.
Test [5] addresses TNK2. As to the kind of experiment: anti-FLAG co-immunoprecipitation, SILAC LC-MS. The settings on record: Ramos PTP1B KO cells; n = 3; read off a plot; scale: log10 SILAC ratio.
The target of test [6] is PTRH2. Briefly: anti-FLAG co-immunoprecipitation, SILAC LC-MS. The settings on record: Ramos PTP1B KO cells; n = 3; read off a plot; scale: log10 SILAC ratio.
In test [7] the target is ARHGAP12 iso 3. Briefly: anti-FLAG co-immunoprecipitation, SILAC LC-MS. The conditions noted are these: Ramos PTP1B KO cells; n = 3; read off a plot; scale: log10 SILAC ratio.
Test [8] has as its target intersectin-2 (ITSN2) [human (endogenous in Ramos)]. As to the kind of experiment: anti-FLAG co-immunoprecipitation, SILAC LC-MS. The conditions noted are these: Ramos PTP1B KO cells; n = 3; read off a plot; scale: log10 SILAC ratio.

As for CD22 (from UniProt P20273) Y807F, the “binding against the reference” value in test [1] is reported as “lost”.
Regarding “FLAG-PTP1B WT (protein tyrosine phosphatase 1B) (from UniProt P18031) D181A; Y46F”, the enrichment in test [2] turned out to be 0.97; in test [3] it was 0.88; in test [4], 1.6; in test [5], 0.6; in test [6], 1.4; in test [7], 1.2.
In the case of “FLAG-PTP1B WT (protein tyrosine phosphatase 1B) mutant D181A; Y46F [not stated] / intersectin-2 (ITSN2) [human (endogenous in Ramos)] chain 1 Y46F, chain 1 D181A”, the enrichment in test [8] was 0.5.
